Measurements as given in US10456465B2, “Compositions, kits, and methods for the diagnosis prognosis, monitoring, treatment and modulation of post-transplant lymphoproliferative disorders and hypoxia associated angiogenesis disorders using galectin-1” (Dana-Farber Cancer Institute, Inc., priority 2009, dated 2019).

How the values were obtained:
[1] = tested on: growth factor receptor tyrosine kinases (RTKs) and signaling nodes; assay: Phospho-RTK signaling array of HUVEC; type: cell-based, human; conditions: HUVEC exposed to Gal1
Protocol: Cells were lysed and analyzed by the human PathScan® RTK Signaling Antibody
Array (Cell Signaling) following manufacturer's directions. For co-immunoprecipitation, 500 μg cell lysates were incubated with 2 μg of anti-VEGFR2 (55B11; Cell Signaling) or anti-NRP-1 (C-19; Santa Cruz Biotechnol) antibodies. The immunocomplexes were captured with protein G PLUS-Agarose (Santa Cruz Biotechnol) and processed for immunoblot analysis as described in Ilarregui et al. (2009) Nat Immunol 10, 981-991. Equal amounts of protein were resolved by SDS-PAGE, blotted onto nitrocellulose membranes (GE Healthcare) and probed with anti-IκB-α (C21), anti-Erk1/2 (C14), anti-phospho-Erk1/2 (E4) or anti-actin (I-19) (all from Santa Cruz Biotechnol) or anti-Akt (9272), anti-phospho-Akt (9271S), anti-VEGFR2 (55B11), anti-phospho-VEGFR2 (19A10) (all from Cell Signaling) or anti-HIF-1α (mgc3; ABR BioReagent) antibodies or a rabbit anti-Gal1 IgG (1.5 μg/ml) obtained as described in Ilarregui et al. (2009) Nat Immunol 10, 981-991.

human galectin-1 (Gal1) = target: T1, human galectin-1 (Gal1) (human, UniProt P09382 2-135); assay: immunoblot of L428 cell lysate
T1 construct: Used as recombinant protein (rGal1); also called hGal1; rGal1
T1 sequence (P09382 2-135 limits assumed): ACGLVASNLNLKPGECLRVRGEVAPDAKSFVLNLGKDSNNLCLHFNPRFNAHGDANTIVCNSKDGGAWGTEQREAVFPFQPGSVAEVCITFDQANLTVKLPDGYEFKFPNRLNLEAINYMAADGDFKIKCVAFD

[2] = target: recombinant human Gal1 (rGal1) (Homo sapiens, UniProt P09382); assay: Anti-Gal1 mAb neutralization of rGal1-induced apoptosis of activated T cells; type: cell-based; conditions: 10 μM rGal1 pre-incubated with 5 μM mAb; 16 h; Annexin V-FITC/PI
Chain of recombinant human Gal1 (rGal1) (P09382 whole entry): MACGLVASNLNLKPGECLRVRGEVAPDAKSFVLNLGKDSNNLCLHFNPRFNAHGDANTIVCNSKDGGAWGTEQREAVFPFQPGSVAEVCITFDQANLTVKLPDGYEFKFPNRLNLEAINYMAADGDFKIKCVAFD
Protocol: Normal T cells were purified and activated with a combination of αCD3 (0.1 μg/ml) and αCD28 (0.5 μg/ml) as previously described (Juszczynski et al. (2007) Proc Natl Acad Sci USA 104:13134-9). Ten μM recombinant human Gal1 (rGal1) was pre-incubated with 5 μM anti-Gal1 mAb 8F4F8G7 or isotype control IgG2b2, (Rockland Immunochemicals Inc., Boyertown, Pa.) or medium alone at 37° C. for 30 min. Thereafter, rGal1+/− antibody was added to in vitro αCD3 and αCD28 activated T cells. After 16 h treatment, cells were harvested for apoptosis analysis using Annexin V-FITC and PI (BD Biosciences, San Jose, Calif.) flow cytometry as previously described (Juszczynski et al. (2007) Proc Natl Acad Sci USA 104:13134-9).

B16 tumors = assay: Anti-tumor immune response in B16 tumor-bearing mice (TDLN restimulation, FACS); type: in vivo, mouse
Protocol: Wild-type KS cells or shRNA clones (5×10^6 cells) were injected subcutaneously into 6- to 8-week old nude mice. Wild-type B16 cells or shRNA clones (2×10^5 cells) were injected into 6- to 8-week old B6 or B6/Rag^−/− mice and tumor development was monitored as described in Rubinstein et al. (2004) Cancer Cell 5, 241-251. Treatments with 8F4F8G7 mAb or control isotype (2.5, 7.5 or 15 mg/kg; i.p. injections every three days) were initiated when tumors reached 100 mm^3. Mice were sacrificed when tumors reached a volume greater than 2 cm^3. At 2 weeks after tumor challenge, lymph node cells (5×10^5 cells/well) were restimulated for 72 h with 1×10^4 irradiated (4,000 rads) B16 cells and were analyzed for proliferation and cytokine production. For adoptive transfer, splenic T cells (5×10^6) from tumor-bearing mice were labeled with CFSE (Molecular Probes) and injected through the tail vein into tumor-bearing recipient mice treated with 8F4F8G7 or control mAb. In related studies, fluorescent beads (3 μm; BD Biosciences), rather than splenic T cells, were injected into tumor-bearing animals treated with 8F4F8G7 or control antibody. CFSE^+ cells or PerCP-labeled beads were analyzed after 24 h or 15 min respectively by flow cytometry in tumor parenchyma and spleen.
For intracellular cytokine staining, TLDN or tumor-infiltrating lymphocytes were made permeable with Perm2 solution (BD Biosciences) and were labeled with fluorescent-labeled monoclonal anti-IFN-γ (XMG1.2; BD Biosciences), anti-IL-17 (TC11-18H10; BD Biosciences), anti-IL-10 (JESS-16E3; eBioscience), anti-CD4 (GK1.5; BD Biosciences), anti-CD8 (H35-17.2; eBioscience) antibodies. Treg cells were determined by using the mouse Treg staining kit (FJK-16s, eBioscience). Cells were analyzed on a FACSAria (BD Biosciences) using a FlowJO software.
Mouse IFN-γ and IL-10 ELISA sets were from BD Biosciences and mouse IL-17 kit was from R&D. Human soluble VEGF was assessed by ELISA (DY293B; R&D). Soluble Gal1 was determined using an in-house ELISA. Briefly, high binding 96-well microplates (Corning Costar) were coated with capture antibody (2 μg/ml purified rabbit anti-Gal1 polyclonal IgG) in 0.1 M sodium carbonate pH 9.5. After incubation for 18 hours at 4° C., wells were rinsed three times with wash buffer (0.05% Tween-20 in PBS) and incubated for 1 h at RT with blocking solution (2% BSA in PBS). Samples and standards (100 μl) were diluted in 1% BSA and incubated for 18 hours at 4° C. Plates were then washed and incubated with 100 ng/ml biotinylated detection antibody (purified rabbit anti-Gal1 polyclonal IgG) for 1 hour at RT. Plates were rinsed three times before adding horseradish peroxidase-labeled streptavidin (0.33 μg/ml; Sigma) for 30 min at RT. After washing, 100 μl of TMB solution (0.1 mg/ml tetramethylbenzidine and 0.06% H2O2 in citrate-phosphate buffer pH 5) was added to the plates. The reaction was stopped by adding 4N H2SO4. Optical densities were determined at 450 nm in a Multiskan MS microplate reader (Thermo Electron Corporation). A standard curve ranging from 2.5 to 160 ng/ml recombinant Gal1 was run in parallel.

KS tumors = assay: KS xenograft in nude mice; type: in vivo
Protocol: HUVEC transfected or not with specific siRNA or pre-incubated with signaling pathway inhibitors were exposed to VEGF or Gal1 with or without lactose, sucrose, 8F4F8G7 mAb or control isotype (IgG1κ) or specific antibodies for VEGFR1 (AP-MAB0702; Abcam), VEGFR2 (AF357; R&D), VEGFR3 (AB89501; Abcam) or VEGF (MAB293; R&D). Cells were processed for proliferation, migration, invasion and tube formation assays. Tumor-associated blood vessels were identified by flow cytometry using Alexa Fluor 647-conjugated anti-CD34 antibody (RAM34; eBioscience).
Wild-type KS cells or shRNA clones (5×10^6 cells) were injected subcutaneously into 6- to 8-week old nude mice. Wild-type B16 cells or shRNA clones (2×10^5 cells) were injected into 6- to 8-week old B6 or B6/Rag^−/− mice and tumor development was monitored as described in Rubinstein et al. (2004) Cancer Cell 5, 241-251. Treatments with 8F4F8G7 mAb or control isotype (2.5, 7.5 or 15 mg/kg; i.p. injections every three days) were initiated when tumors reached 100 mm^3. […] At 2 weeks after tumor challenge, lymph node cells (5×10^5 cells/well) were restimulated for 72 h with 1×10^4 irradiated (4,000 rads) B16 cells and were analyzed for proliferation and cytokine production. […] CFSE^+ cells or PerCP-labeled beads were analyzed after 24 h or 15 min respectively by flow cytometry in tumor parenchyma and spleen.

[3] = restimulated ex vivo with B16 cells

| Molecule | phosphorylation of Akt (Thr308), Akt (Ser473) and Erk1/2 [1] | phosphorylation of VEGFR2 ([1]; as early as 15 min) | binding result (human galectin-1 (Gal1)) | rGal1-induced apoptosis of αCD3/αCD28-activated T cells [2] | B16-specific IL-10 production (B16 tumors; mouse, in vivo) | proliferation of tumor-draining lymph node cells (B16 tumors; [3]) | synthesis and secretion of IFN-γ by tumor-draining lymph node cells (B16 tumors; [3]) | synthesis and secretion of IL-17 by tumor-draining lymph node cells (B16 tumors; [3]) | frequency of CD4+CD25+FoxP3+ Treg cells in TDLN (B16 tumors; vs isotype control) | number of tumor-infiltrating IFN-γ-producing CD8+ T cells (B16 tumors; vs isotype-treated mice) | tumor microvasculature (KS tumors; CD34+ ECs and tumor hemoglobin content, vs isotype control) | tumor growth (KS tumors; established KS tumors, 2.5, 7.5 or 15 mg/kg i.p. every three days) |
| --- | --- | --- | --- | --- | --- | --- | --- | --- | --- | --- | --- | --- |
| rGal1: recombinant human galectin-1 | increased | became phosphorylated |  |  |  |  |  |  |  |  |  |  |
| anti-Gal1 monoclonal antibody 8F4F8G7 (antibody, V domains shown, Murine hybridoma mAb (deposit PTA-10535), lambda light chain; also called 14-19 8F4-F8-G7; clone 8F4.8F.67) VH: EVQLQQSVAEFVRPGASVRLSCTASGFNIKNTYIHWVRQRPEQGLEWIGKIDPANGNTKYVPEFQGKATMTADTSSNTVYLHLSSLTSEDTAIYYCVDGYYGWYFAVWGTGTTVTVSS VL: QAVVTQESALTTSPGETVTLTCRSSTGAVTTSNYANWVQEKPDHLFTGLIGATNNRAPGVPARFSGSLIGDKAVLTITGAQTEDEAIYFCALWYRNHFIFGSGTKVTVL |  |  | binds | almost completely inhibited | blunted | stimulated | stimulated | stimulated | decline | dramatic increase | significant reduction | dose-dependent delay |
